In the DeepSol protein solubility set:

experiment: soluble on expression in E. coli; label from the status in PepcDB or PDB records

Sequence | soluble on expression in E. coli
MDYDVIANQPVVIDNGSGVIKAGFAGEQQPKVRFANFVGRPKYHRVMAGGLDGDIFIGPKAESNRGLFSIEYPMEHGIVNNWSDMEKIWEYIFGQDQLKIFPEEHPVLLTDAPLNPLKNRERSAEIFFETFNVPALYIQMQAVLSLYATGRTTGVVLDSGDGVTHAVPIVKGFAMKHAIQRMDLAGRDVTEYLRVLLRREGYEFHRSNEFEIVREMKENACYLALDPTKVENNSVKSSYALPDTTKIEISNSLFRAPEVLFKPDLIGTEWPGMAHVVNQSIMKCDVDLRQTLYSNIVLSGGTTLFKGFGDRLLGEMRKIAPADGKIRISASQERNSLTWIGGSIVASLDTFRKMWLGKKEYEDMGASAMHKRFF | not soluble
CSCSPVHPQQAFCNADIVIRAKAVNKKEVDSGNDIYGNPIKRIQYEIKQIKMFKGPDQDIEFIYTAPAAAVCGVSLDIGGKKEYLIAGKAEGNGNMHITLCDFIVPWDTLSATQKKSLNHRYQMGCECKITRCPMIPCYISSPDECLWMDWVTEKNINGHQAKFFACIKRSDGSCAWYRGAAPP | soluble
MTMTLHTKASGMALLHQIQGNELEPLNRPQLKIPLERPLGEVYLDSSKPAVYNYPEGAAYEFNAAAAANAQVYGQTGLPYGPGSEAAAFGSNGLGGFPPLNSVSPSPLMLLHPPPQLSPFLQPHGQQVPYYLENEPSGYTVREAGPPAFYRPNSDNRRQGGRERLASTNDKGSMAMESAKETRYCAVCNDYASGYHYGVWSCEGCKAFFKRSIQGHNDYMCPATNQCTIDKNRRKSCQACRLRKCYEVGMMKGGIRKDRRGGRMLKHKRQRDDGEGRGEVGSAGDMRAANLWPSPLMIKRSKKNSLALSLTADQMVSALLDAEPPILYSEYDPTRPFSEASMMGLLTNLADRELVHMINWAKRVPGFVDLTLHDQVHLLECAWLEILMIGLVWRSMEHPVKLLFAPNLLLDRNQGKCVEGMVEIFDMLLATSSRFRMMNLQGEEFVCLKSIILLNSGVYTFLSSTLKSLEEKDHIHRVLDKITDTLIHLMAKAGLTLQQQHQRLAQLLLILSHIRHMSNKGMEHLYSMKCKNVVPLYDLLLEMLDAHRLHAPTSRGGASVEETDQSHLATAGSTSSHSLQKYYITGEAEGFPATV | soluble
MQEVHKWHNDLTGKKLVENLKKNLFDAYYFEDGSEVSKYIMNYVGTGTKIGFGGSVTVQSLNIAEQAMEKGAVILDHNDASLTQEEKMDIMRQQLTSDIFISSTNAITASGELVNIDGVGNRVSAIVFGPKKVIIVVGLNKLCKDVETAFERIKMQAAPKNMKRLGFLNPCIKTGYCVNCDAETRACRIYSVIKRRPMLTDMTVLVVGKSLGFLEHHHHHH | soluble
MAPKSILITGANRGIGLGLLKQFIKNKDVQIIIGTCRDPSNATELNSIKDTRVHILQLDIDCDDSIRKLGAEVEKLVGEDGLTVLINNAGIFVPYDIDGEKSRSTLIRQLETNTISTVLITQELLPLLKRAAAKNRGEGYSINRSAIINISSTAGSITKIDASYNIPLVAYRMSKSALNSFGKSCSVDLAKYHILVTTFCPGWVKTDMGGANGKLEIDDATKTLSDNILILGDAHHGAYLNADLTVIPN | soluble
MAHHHHHHMPHHAQDLRHDFTSGILNCHESCAVCLDACLCMYCTASAHHNFLMNDTEGLYLPVCWGLFCVDVGLSAVSSYLPSSLHFHTYFMRSAIRRRYNLHSA | soluble
MAHHHHHHMAPMSSSGIRGLSLRSVRETVHCATTQTTSAPPPPANCQQHQLLNTTEDKCNAIFAEVELLSKWLQHAVESRAHVEREAYALLQQADVKIQHLEDTVRQKEMELLYMRGAMESLRTRVEFYECRERRIEGDDDDANFPLRREADFKGAAVRKVVIMGENNTNDSYCSNRMGRGNGVMSPADFTVDSTEQLNAGKCVDLGTTATTCNSNGVDNASVSSPAETGVGGRSRVGHSALSWVRYLLERCVSNSGKDGASEGAASMKKKGEGNDQLADALTMLTTLQCQYADPNGDLVMMNSLCTKFSNSIVAVAEELNTALQIPLKRASNTTDSLQISQAAKVVEHPESAAEALPSSNQEPIMQCRKSVVEENLQLLQSLMAVESSSREAWSTLQKY | not soluble
MKVIAVNGGPRKQWNTATLLHKALEGAQSAGAETDLFHLYDLNYKGCISCFGCKRKNSSRIGHCVLKDELTPLLEEVLKCDALLLGSPIYFGNVTGAMRSFLERLFFSLLSYNEGQRTVFPRKVASGFIYTMNVPEDFLPQLEHHHHHH | soluble
MFSDTDISMMENALRLAALGRFSTSPNPRVGCVIAHGSQIVGQGFHVKAGEPHAEVHALRQAGEMAQGATAFVTLEPCSHYGRTPPCAEALVRAGVSRVVAAMRDPNPLVAGKGLALLEAAGIKTECGLLEHQARELNRGFLSRIERRRPFVRLKCAVSLDGKTALSDGSSFWITGEDARADVQVLRAESCAVLTGIGTVLADNPRLNVRAFPTLRQPARIVLDSRLRLPPNSHLVTDGQSPTYIATLERNEDRLHPYREHAHVRILMPSETADSKIDLHHLMRLLADEGFGEIMVEAGSELTSAFLAENLADEIVLYRSPKILGSGKDLFSLLENRAALSAPPLWTPVSSEILGHNIKTVFRKNGNAF | soluble
SNAMRLVADSACDIKELRGMVFKAVPLTISTDNEEFCDDGQLDIHRMLDILEKHKGRSYTACPGIDAWLEAFGDDDEIFVVTITAGMSGTYNSAMAARAVYLEEHPQAKVRVIDSKSTGPQMRIILEQLQQMIEEGKKFEEIDGAIDAYMQKTRLFCSLKSLHNLAQNGRVSKVVASAAEVLGISVIGTASSHGTLEAIGKCRGDKKLLVKLQALLDDAGYEGGKLRICHVENEALADKIADMIKQAYGTTDVCVYKAGGLCSYYAERGGIILSCETK | soluble
MGSDKIHHHHHHMSHRKALLIHNGNAANKNIEKALGAVVPVLSHHLDEVIIKQTKKKDHAYHFCRSIDDSVDTVFILGGDGTIHQCINAISALERKPAVGILPGGTSNDFSRVLGIPQNLAKAAEALMAGKKTSVDVCQMNDRYFLNFWGIGLIAETSNQINETEKALLGKISYFTSALRTVSSAASFPMTLKIDGEEIKEEAVMLLVMNGQYIGTNRIPLPDASIEDGLLDVLICRNTNLTALRELMSMEQGSIDRFTGELSYVQASRIEIETDTAKKADMDGEVYTHTPAVIQVLPQHIDMLVPANE | not soluble
MPNELSRSLSPYLLMHANDPVEWRMWSKETLRIATEENRLIFLSIGYSSCHWCHVMHEESFVDPDVAEILNNNYIPVKVDREERPDLDSYFMKVSQVINGNGGWPLNIILLPDARPVFAMTYVPKEDRNGMTGLKTILIQLSQMYLKDPDQFKDQAKAVSDAMEERESV | soluble
MLSAKGPQMRAFTQRVAAFSTQLQIDPIPIVFVGKGTTPRQNSLLGPNDSQYPFQGDVSFAHKPLSIRQQVENSKIERVMDDTEHNLINLLSNTNIEVDRTHLAQLKEEAMEEIQANAADVEIELSAIEAPKLLKKEMKYLFPQMETQKMNNVTVFNLTQKSEFDMKAWSEAMEEEREKLTASFIMSANAICSTLHRFGYWADFIDPSSGRPYMGDYTNHTLFETNDAYKQMGFKIEDLGCCKVLQHACWGSNAFVGTIFTDAPVDGDAVRDILKKVTQEIDE | not soluble
GMEGSLSRGVEIMKLRELVARSRSIRRFDEHVAVNDATLRDLVELVCYTPSAANRQLLRFLPVTGADMSDKVFPCLKWAGYLEDWPGPEPGERPAAALVMLCRNEDLPGAACDSGIAAQTIMLGAAEKELGGCIVAAIDRERLMASLGIPDAWTVLLVIALGKPAETVVIDQIKPGDDIRYWRDKHGIHHVPKRQVDELLVTAEQLRERG | soluble
MSLRKGIIAAGNMLVDHVHQIRQWPERGWLVEIVHSERATGGAPLNVLLTLAKMHAGLPLQAVGLIGEDNDGDYITAMLDQYHINRQLVQRTSSAPTSMTQVMTDAEGQRTFFHSPGANRLLDLPAFEPLDAPLKIFHLGYLLLLESLDRPDEVYGTRSARLLAQMRERGYEVSLDLVSRKGDPRYRPLVLPALKHLDYLTINELEASEFSGLEIRLPNGEPHVANIARAASALLDAGVRQRVVIHCPEGAWGVSRTEAGRWVPSWRLPPEEIIGSVGAGDAFCAGLLYGSHERWPLTASLQLAHACARASLQAANAIDGAKTLPELQAFIQLQNGEGHHHHHH | soluble
DIEVSEDVRKEQLGWLSCVSRAILKQNIITYSQPIVHAYSHLPASQECLVRILEEDGTVIAPGRFLPIISDTHLYTRLSRHMIRSTLHYMRDKKGDFSINLSPQDLLSDKTLMLLEHEISQLNDPTRIGLEVLESEQIKDYGRMIEVCSHFRKLGARIIVDDFGSGYSNIDEILKLEPEVIKLDGSLIRDIDKDLKQRKIASQLVRLCQVFNAETVAEFVHNREVCKIAQDMGVDYLQGYYLGEP | not soluble
MKSLDDLDFDNRFARLGGAFSTEVLPDPIAEPRLVVASPAALALLDLPAETSDEALFAELFGGHKLWSEAEPRAMVYSGHQFGSYNPRLGDGRGLLLGEVINQAGEHWDLHLKGAGQTPYSRMGDGRAVLRSSIREFLASEALPALGIPSSRALCVIGSSTPVWREKKESAATLLRLAPSHVRFGHFEYFYYTRQHDQLKQLAAFVLEHHFADCNAAERPYAAMFRQVVERNAELIARWQAYGFCHGVMNTDNMSILGITFDYGPYAFLDDFDANHICNHSDDAGRYSFSNQVPIAHWNLAALAQALTPLVEVDELRASLDLFLPLYQAHYLDLMRRRLGLGVAAENDHALVQELLQRMQGSAVDYSLFFRRLGEETPERALASLRDDFVDREAFDRWAEAYRRRVEEEGGDQESRRRRMHAVNPLYVLRNYLAQQAIEAAEQGDYTEVRLLHQVLSRPFEEQPGMERFTRRPPDWGRHLEISCSS | not soluble
MRMMEAEIKDQRNNLQALKNSQRLSVRGSIQSNMSSRTDGILQRRLDETERKLAKTSAELKAKDEKLKKETASLEASREAHRLLQEESNKSKVSVMRLTFKLNRITHESVKEQAVLKKKLLDCETRLATYSECLVCYQKFDENTRIPRVMDCGHTLCDFCINQIVKMAGCYSATCPFDRVRIFGFGKSRRLEDRPCNRFIMK | not soluble
MPGAMESPNESEDVSKTFFKLCDGLRLGELVTTEHFRLSDVMSAIELGEPKMDVGVGSKHIKTLKEAISGGLYADDYPFQLAIMDSTLAMVVAWLEGSALGSTVWTNVLLSNVTFVKHPVFHPFASGVNLFIRNAHALINSVGNLEELPEDFNPQMLFSHQRWAPRRVVVQLMREQVTLLGTTGRKWRESAFSKQAYDICCAVASRLEMFIMLLEIIGLLVAPEIEDPNFDHKVHLGDFYVHEKEYEGAEENSDEKSEESTSDPTPSSEAKSETTEKKEQKSNDEATDETDQNDDENVGDDEDEDDMKQFKPNFGFASILAERLCKVTKAYAETVKLGRRAPDNIDGDGDYLWLGAYEPKTCIRMIPACFPRKIKVPSRQEAADWWVKCAERIYHLCIVTPKTSKDLNYLFYFARTFGQNACVFTRSLLQICMFPVDNHLCGDENRSIADAVEYSLSNCFCPQILDRVSPVYKDQTAQSLYVLFLNHMSKLAITVYGSFGCNLSRQRDRLEMAIEDLGQIHSYAGRLEERTDEVLLSGKMVTAKEQNYSYHSVATFVFHNLLAIINHYFELGFRMDLYVPYEFPYIYWFIGSVQAHWMRTTLERSQEIQLNVYQANPLRETKNKKLWEERCKLGEELKRRVAAHQFSVLNQIAISMISDGVVRLTVVLIRKGIIKMPKGGDDAEKLRFERRFEPFDSLGPPVRVDYERFKSDSGIDQMYEDKIETLIDQAQKSFNEAREHLEKIDNSVEQNREMMQLIHVAKSNIIACRVLKLDLTDRNVVWSFSEEIPMFPCLKISKK | not soluble
